This experiment has as its target F-actin (filamentous rabbit skeletal muscle actin) (rabbit), P68135. Kind of experiment: co-sedimentation. The settings on record: remark: other sources report otherwise.

B1: utrophin actin binding domain, utrophin residues 1-261 (UTR261), wildtype, P46939 1-261 (domain or fragment)
chain: MAKYGEHEASPDNGQNEFSDIIKSRSDEHNDVQKKTFTKWINARFSKSGKPPINDMFTDLKDGRKLLDLLEGLTGTSLPKERGSTRVHALNNVNRVLQVLHQNNVELVNIGGTDIVDGNHKLTLGLLWSIILHWQVKDVMKDVMSDLQQTNSEKILLSWVRQTTRPYSQVNVLNFTTSWTDGLAFNAVLHRHKPDLFSWDKVVKMSPIERLEHAFSKAQTYLGIEKLLDPEDVAVQLPDKKSIIMYLTSLFEVLPQQVTID
Broadly, the Kd is the free concentration of one partner at which half of the binding sites on the other are occupied at equilibrium, for simple one-to-one binding. As usually defined, the stoichiometry N is a count of units in the complex or per binding partner. Turning to B1, the dissociation constant Kd was determined as 19.2 µM and the stoichiometry N was 1.

The record behind these values is publication PMC3642092.
